pKd, pKi: −log10 of the molar value.
How the values were obtained:
[1] = tested on: AMV reverse transcriptase (Avian myeloblastosis virus); conditions: intramolecular 3' extension to end of template; 100 nM RT
[2] = target: T1, HIV-1 reverse transcriptase (HIV-1) (UniProt P04585+P04585); assay: inhibition; conditions: almost no inhibition at 81 nM
[3] = target: T1, HIV-1 reverse transcriptase (HIV-1); assay: filter; conditions: apparent Kd of degenerate library

Sequence | activity [1] [% initiation] | pKi [2] | pKd [3]
ATCCGCCTGATTAGCGATACTTACGTGAGCGTGCTGTCCCCTAAAGGTGATACGTCACTTGAGCAAAATCACCTGCAGGGG [RT26] | 50 |  | 
CCCCTGCAGGTGATTTTGCTCAAGTNNNNNNNNNNNNNNNNNNNNNNNNNNNNNNNNNNNAGTATCGCTAATCAGGCGGAT [R0 degenerate 35N ssDNA library] |  | < 5.52 | 5.85

From patent publication US5503978
